Laboratory results taken from publication PMC6765224, “Stereospecificity control in aminoacyl-tRNA-synthetases: new evidence of D-amino acids activation and editing” (Nucleic Acids Research, 2019).

What was measured:
Experiment in all cases: purified protein
purified protein [1] = substrate: N[C@H](Cc1ccc(O)cc1)C(=O)O; assay type: biochemical, Thermus thermophilus; conditions: amino acid activation, 4 mM ATP, 1 mM PPi, 10 mM MgCl2, pH 7.5, 60 °C
purified protein [2] = substrate: N[C@@H](Cc1ccc(O)cc1)C(=O)O; assay type: biochemical, Thermus thermophilus; conditions: amino acid activation, 4 mM ATP, 1 mM PPi, 10 mM MgCl2, pH 7.5, 60 °C
purified protein [3] = substrate: N[C@@H](CO)C(=O)O; conditions: amino acid activation
purified protein [4] = substrate: C[C@@H](N)C(=O)O; conditions: amino acid activation, pH 7.5
purified protein [5] = substrate: C[C@H](N)C(=O)O; conditions: amino acid activation, pH 7.5
purified protein [6] = substrate: NCC(=O)O; assay type: biochemical, Thermus thermophilus; conditions: amino acid activation, 4 mM ATP, 1 mM PPi, 10 mM MgCl2, pH 7.5, 60 °C
[7] = editing-deficient mutant, 37.0 °C
[8] = 4 mM ATP, 1 mM PPi, 10 mM MgCl2, pH 7.5, 60 °C, pH 7.5, 60.0 °C
[9] = 4 mM ATP, 1 mM PPi, 10 mM MgCl2, pH 7.5, 60 °C, 60.0 °C

B1: TyrRSTT (T. thermophilus tyrosyl-tRNA-synthetase) (Thermus thermophilus HB27) (protein)
chain: MAGTGHTPEEALALLKRGAEEIVPEEELLAKLKEGRPLTVKLGADPTRPDLHLGHAVVLRKMRQFQELGHKVVLIIGDFTGMIGDPSGRSKTRPPLTLEETRENAKTYVAQAGKILRQEPHLFELRYNSEWLEGLTFKEVVRLTSLMTVAQMLEREDFKKRYEAGIPISLHELLYPFAQAYDSVAIRADVEMGGTDQRFNLLVGREVQRAYGQSPQVCFLMPLLVGLDGREKMSKSLDNYIGLTEPPEAMFKKLMRVPDPLLPSYFRLLTDLEEEEIEALLKAGPVPAHRVLARLLTAAYALPQIPPRIDRAFYESLGYAWEAFGRDKEAGPEEVRRAEARYDEVAKGGIPEEIPEVTIPASELKEGRIWVARLFTLAGLTPSNAEARRLIQNRGLRLDGEVLTDPMLQVDLSRPRILQRGKDRFVRVRLSD
notes: wild type
Km (purified protein [1]): 27.6 ± 7.5 µM | kcat (purified protein [1]): 2.2 ± 0.65 s⁻¹ | kcat/Km (purified protein [1]): 80000 M⁻¹ s⁻¹ | Km (purified protein [2]): 9 ± 2 µM | kcat (purified protein [2]): 17.4 ± 3.9 s⁻¹ | kcat/Km (purified protein [2]): 1.93e+06 M⁻¹ s⁻¹

B2: E. coli C666A AlaRS (Escherichia coli K-12; C666A) (protein)
chain: SKSTAEIRQAFLDFFHSKGHQVVASSSLVPHNDPTLLFTNAGMNQFKDVFLGLDKRNYSRATTSQRCVRAGGKHNDLENVGYTARHHTFFEMLGNFSFGDYFKHDAIQFAWELLTSEKWFALPKERLWVTVYESDDEAYEIWEKEVGIPRERIIRIGDNKGAPYASDNFWQMGDTGPCGPCTEIFYDHGDHIWGGPPGSPEEDGDRYIEIWNIVFMQFNRQADGTMEPLPKPSVDTGMGLERIAAVLQHVNSNYDIDLFRTLIQAVAKVTGATDLSNKSLRVIADHIRSCAFLIADGVMPSNENRGYVLRRIIRRAVRHGNMLGAKETFFYKLVGPLIDVMGSAGEDLKRQQAQVEQVLKTEEEQFARTLERGLALLDEELAKLSGDTLDGETAFRLYDTYGFPVDLTADVCRERNIKVDEAGFEAAMEEQRRRAREASGFGADYNAMIRVDSASEFKGYDHLELNGKVTALFVDGKAVDAINAGQEAVVVLDQTPFYAESGGQVGDKGELKGANFSFAVEDTQKYGQAIGHIGKLAAGSLKVGDAVQADVDEARRARIRLNHSATHLMHAALRQVLGTHVSQKGSLVNDKVLRFDFSHNEAMKPEEIRAVEDLVNTQIRRNLPIETNIMDLEAAKAKGAMALFGEKYDERVRVLSMGDFSTELAGGTHASRTGDIGLFRIISESGTAAGVRRIEAVTGEGAIATVHADSDRLSEVAHLLKGDSNNLADKVRSVLERTRQLEKELQQLKEQAAAQESANLSSKAIDVNGVKLLVSELSGVEPKMLRTMVDDLKNQLGSTIIVLATVVEGKVSLIAGVSKDVTDRVKAGELIGMVAQQVGGKGGGRPDMAQAGGTDAAALPAALASVKGWVSAKLQ
Km (purified protein [3]; editing-deficient mutant): 27000 ± 6000 µM | kcat (purified protein [3]; editing-deficient mutant): 0.147 ± 0.04 s⁻¹ | Km (purified protein [4]; [7]): 60000 ± 20000 µM | kcat (purified protein [4]; [7]): 0.1 s⁻¹ | kcat/Km (purified protein [4]; [7]): 1.8 M⁻¹ s⁻¹ | Km (purified protein [5]; [7]): 304 ± 43 µM | kcat (purified protein [5]; [7]): 0.18 s⁻¹ | kcat/Km (purified protein [5]; [7]): 600 M⁻¹ s⁻¹

B3: AlaRSTT (Thermus thermophilus alanyl-tRNA-synthetase) (Thermus thermophilus HB27) (protein)
chain: MRTAEIREKFLSFFEGKGHLRLPSFSLIPEDDPSLLFTSAGMAPLKPYFLGAKPIFGGREWRRVTTCQECLRVGDIENVGRTSRHNTYFEMLGNFSFGDYFKKEAILWAWEFLTEHLRLDPGRLWVTVFEDDDEAYEIWRDLVGVPEERIGRFGEDENYWPGGAITHGPNGPSGPCSEIFYDRGPAYGTPDETGPNTGSGDRFVEIWNLVFTQYDRQGPIPGPGILKPLPQKNIDTGMGLYRVAAILQDVEDFYRTDTFFPIIQEVARMSGRPYEGKTSVSHRVIADHVRAVVAALSDGATFSNTGRGYVIRRLLRRALRHGYLLGLSDPFLHRLAPLVAELLGDFYPEMRENLPAVEKQIRLEEERFLETLEGGLKRLDALLSGLKPGEVLPGKEAFRLYDTYGFPLDLTVEIAAERGYGVDTEGFQKAMEEQQSRSRAAMAFEREIFKKGAQVLEELYAERGATEFLGYNALEAEAEVLALLAGDQSLLEAGPGTEVQVVLDKTPFYAEGGGQIGDFGLLEWPGGRARVETTRKTERGIFLHKARVEEGVLRVGERVRAVVDPRRRDTERNHTATHLLHAALRAVLGPHVRQAGSLVAPDRLRFDFTHPEPLKPEELERVELLVNRWIMADFPVTWRYMPLEEARKEGAMALFGEKYGEVVRVVRVEGSPLEGLESKELCGGCHVRRTGEIGAFLIRSEEAVSAGVRRIEAVTGEEAIRFARGSLNRLKALAERLEVGEAALEERLEKLLAELKEKEREVESLKARLVQAALGGGGGASLEEKGGLRWTVAELPGLDAKALRQAADDLVARGADVALVLSGGQAVLKLSPKAQGMGLEAGALFRALAEKAGGRGGGKGALAQGGGLDPRKAREALPGLLP
notes: His-tagged, pET28b, expressed in E. coli BL21(DE3)Star; wild type
Km (purified protein [6]): 22000 ± 8000 µM | kcat (purified protein [6]): 6.5 ± 1.6 s⁻¹ | kcat/Km (purified protein [6]): 290 M⁻¹ s⁻¹ | Km (purified protein [3]; [8]): 10000 ± 2000 µM | kcat (purified protein [3]; [8]): 2.3 s⁻¹ | kcat/Km (purified protein [3]; [8]): 236 M⁻¹ s⁻¹ | Km (purified protein [4]; [9]): 2190 ± 500 µM | kcat (purified protein [4]; [9]): 0.21 s⁻¹ | kcat/Km (purified protein [4]; [9]): 120 M⁻¹ s⁻¹ | Km (purified protein [5]; [9]): 139 ± 12 µM | kcat (purified protein [5]; [9]): 7.88 s⁻¹ | kcat/Km (purified protein [5]; [9]): 56000 M⁻¹ s⁻¹
